B1: GT 73B1: Arabidopsis thaliana glycosyltransferase, SEQ ID NO: 22 (nucleotide), 114 (amino acid) (protein, listed as Arabidopsis thaliana)
chain: MGTPVEVSKLHFLLFPFMAHGHMIPTLDMAKLFATKGAKSTILTTPLNAKLFFEKPIKSFNQDNPGLEDITIQILNFPCTELGLPDGCENTDFIFSTPDLNVGDLSQKFLLAMKYFEEPLEELLVTMRPDCLVGNMFFPWSTKVAEKFGVPRLVFHGTGYFSLCASHCIRLPKNVATSSEPFVIPDLPGDILITEEQVMETEEESVMGRFMKAIRDSERDSFGVLVNSFYELEQAYSDYFKSFVAKRAWHIGPLSLGNRKFEEKAERGKKASIDEHECLKWLDSKKCDSVIYMAFGTMSSFKNEQLIEIAAGLDMSGHDFVWVVNRKGSQEEKEDWLPEGFEEKTKGKGLIIRGWAPQVLILEHKAIGGFLTHCGWNSLLEGVAAGLPMVTWPVGAEQFYNEKLVTQVLKTGVSVGVKKMMQVVGDFISREKVEGAVREVMVGEERRKRAKELAEMAKNAVKEGGSSDLEVDRLMEELTLVKLQKEKV
B2: GT 84A1: Arabidopsis thaliana glycosyltransferase, SEQ ID NO: 81 (nucleotide), 130 (amino acid) (protein, listed as Arabidopsis thaliana)
chain: MVFETCPSPNPIHVMLVSFQGQGHVNPLLRLGKLIASKGLLVTFVTTELWGKKMRQANKIVDGELKPVGSGSIRFEFFDEEWAEDDDRRADFSLYIAHLESVGIREVSKLVRRYEEANEPVSCLINNPFIPWVCHVAEEFNIPCAVLWVQSCACFSAYYHYQDGSVSFPTETEPELDVKLPCVPVLKNDEIPSFLHPSSRFTGFRQAILGQFKNLSKSFCVLIDSFDSLEQEVIDYMSSLCPVKTVGPLFKVARTVTSDVSGDICKSTDKCLEWLDSRPKSSVVYISFGTVAYLKQEQIEEIAHGVLKSGLSFLWVIRPPPHDLKVETHVLPQELKESSAKGKGMIVDWCPQEQVLSHPSVACFVTHCGWNSTMESLSSGVPVVCCPQWGDQVTDAVYLIDVFKTGVRLGRGATEERVVPREEVAEKLLEATVGEKAEELRKNALKWKAEAEAAVAPGGSSDKNFREFVEKLGAGVTKTKDNGY
B3: GT 73B2: Arabidopsis thaliana glycosyltransferase, SEQ ID NO: 23 (nucleotide), 115 (amino acid) (protein, listed as Arabidopsis thaliana)
chain: MGSDHHHRKLHVMFFPFMAYGHMIPTLDMAKLFSSRGAKSTILTTSLNSKILQKPIDTFKNLNPGLEIDIQIFNFPCVELGLPEGCENVDFFTSNNNDDKNEMIVKFFFSTRFFKDQLEKLLGTTRPDCLIADMFFPWATEAAGKFNVPRLVFHGTGYFSLCAGYCIGVHKPQKRVASSSEPFVIPELPGNIVITEEQIIDGDGESDMGKFMTEVRESEVKSSGVVLNSFYELEHDYADFYKSCVQKRAWHIGPLSVYNRGFEEKAERGKKANIDEAECLKWLDSKKPNSVIYVSFGSVAFFKNEQLFEIAAGLEASGTSFIWVVRKTKDDREEWLPEGFEERVKGKGMIIRGWAPQVLILDHQATGGFVTHCGWNSLLEGVAAGLPMVTWPVGAEQFYNEKLVTQVLRTGVSVGASKHMKVMMGDFISREKVDKAVREVLAGEAAEERRRRAKKLAAMAKAAVEEGGSSFNDLNSFMEEFSS

Assay: Whole-cell biocatalysis screen of GT library against the aglycone daidzein (RP-HPLC of glucosides)
Type: cell-based, E. coli
Settings: percentage of a regiospecific glucoside in the total amount of monoglucosides formed
Description: FIG. 3: Screening of a GT-library against the aglycone daidzein. a) The readings at A405 nm for D-glucose detection are presented in a colored code format. b) Examples of RP-HPLC trace of active and non-active GTs in whole-cell biocatalysis are illustrated. c) The regioselectivity of the active GTs towards daidzein, defined by the percentage of a regiospecific glucoside in the total amount of monoglucosides formed;
Reverse-phase HPLC (RP-HPLC): RP-HPLC (Agilent 1100 system with Photodiode Array Detector, Agilent, U.K.) analysis was carried out using a Columbus 5-μ C18 column (150×3.20 mm, Phenomenex, U.K.). Glucosides were separated from their respective aglycones using a linear gradient of acetonitrile/0.1% formic acid (v/v) in H2O: 10-45% (trans-resveratrol/glucosides), 10-50% (daidzein/glucosides) at 0.5 mL/min over 20 min and monitored at 280 nm and 250 nm. Separation of scopoletin/scopolin and esculetin/esculin was carried out using the conditions described previously.^[11]
The cDNA library of 96 Arabidopsis thaliana GTs was subcloned into the multiple cloning site of the glutathione-S-transferase (GST) gene fusion vector pGEX-2T (Amersham Biosciences, U.K.) as described previously^[10] and transformed into the strain E. coli BL21 (DE3) for use in the screening method.
Stage 1, biotransformation: single colonies of the GT library grown on LB-agar plates overnight were transferred to individual wells in a 96-well bacterial culture plate containing 400 μl 2×YT medium (16 g/L bacto tryptone, 10 g/L yeast extract, 5 g/L NaCl) and 50 μg/mL ampicillin. The plate was covered with an adhesive plate seal (Abgene, U.K.) and incubated at 37° C. (250 rpm). The bacterial growth was monitored at 595 nm by a plate reader. After 4 h, the cultures had reached exponential phase. The plate was centrifuged (4000 g, 10 min), the supernatants discarded and cell pellets were resuspended in isopropyl-D-thiogalactopyranoside (0.1 mM), 2-(N-morpholino)ethanesulfonic acid (50 mM, pH 7.0), ampicillin (50 μg/mL), L-arabinose (10 g/L) and 500 µM of aglycone to a total whole-cell reaction volume of 400 μl/well. The 96-well plate was closed with a gas permeable adhesive plate seal, wrapped in alu foil for light protection and incubated at 25° C. (250 rpm). After 44 h the cultures were centrifuged (4000 g, 15 min) and the supernatants analyzed. […]
Stage 3, detection: 50 μl of the reaction mix were transferred to a 96-well filtration plate (Abgene, U.K.), mixed with an equal volume of PVPP aqueous suspension (25 g/L), shaken for 1 h at 25° C. before centrifugation (1000 g, 5 min). […] The formation of the green dye was monitored at 405 nm at 30 min using a plate reader (Bio-Tec Instruments Inc., U.S.A). […]
For B1, the “regioselectivity for the 7-OH of daidzein” value (from here on “regioselectivity”) was 100%.
For B2, the “regioselectivity” value was 100%.
For B3, the “regioselectivity” value was 100%.

From patent publication US20090280543A1, “REGIOSELECTIVE GLYCOSYLATION” (THE UNIVERSITY OF YORK, priority 2005, published 2009)
